Data published in article PMC11850249, “Typical and atypical metabolic characteristics of three iridaceae isoflavone components: in vitro and in silico studies” (Frontiers in Pharmacology, 2025).

How the values were obtained:
Assay type in all cases: in vitro ADME, human
[1] = substrate: COc1cc(-c2coc3cc4c(c(OC)c3c2=O)OCO4)cc(OC)c1OC; assay: Enzyme kinetics with recombinant CYP1A2; settings: other: recombinant CYP1A2, sigmoidal kinetics (S50), mean ± SE, n = 3; 30.0 °C
Protocol: (§1) A series of concentrations (1–300 μM) of tectorigenin, irigenin, or irisflorentin were added to HLMs or recombinant enzymes. Nonlinear regression was performed on the substrate concentration and generation rate of metabolites to investigate the enzymatic kinetic characteristics of these components in the metabolic system. All experiments were carried out in triplicate.
(§2) A Waters AQUITY UPLC system (Waters, Milford, MA, United States) equipped with a Dikma ODS C18 column (150 × 4.6 mm, 5 μm) was used for separation at 30°C. The binary mobile phase consisted of A (an aqueous solution containing 0.1% acetic acid and 2 mM ammonium acetate) and B (acetonitrile) at a flow rate of 1 mL/min. The elution settings were as follows: 0 → 5 min: 10% B → 20% B; 5 min → 20 min: 20% B → 50% B; 20 min → 21 min: 50% B → 60% B; 21 min → 25 min: 60% B → 90% B; 25 min → 25.1 min 90%–10% B; 25.1 min → 30 min 10% B. Flow rate: 1 mL/min 260 nm was used as the detection wavelength. Calibration standard curves were generated using a reaction mixture containing tectorigenin, irigenin, or irisflorentin at a concentration range of 0.03–10 µM. The concentrations of the metabolites were calculated using a standard curve of the substrates.
(§3) GraphPad Prism software 5.0 was used to perform non-linear fitting between the metabolite generation rate (V) and substrate concentration [S]. The appropriateness of the enzyme kinetic model was determined using R ^2 and the Eadie-Hofstee fit. The maximum metabolic rate (Vmax) and Michaelis constant (Km) were obtained for kinetic processes that conformed to the Michaelis–Menten model (Equation 1). For kinetic processes that conform to the sigmoidal kinetics model (Equation 2), Vmax, Hill coefficient (n), and S50, concentrations at 50% Vmax were obtained. Intrinsic clearance (Clint) was calculated according to Equation 3 (for the Michaelis–Menten model) and Equation 4 (for the sigmoidal kinetics model). All data are expressed as mean ± Standard Error (SE). One - way analysis of variance was used to compare the differences between different groups. […]

[2] = substrate: COc1c(O)cc2occ(-c3ccc(O)cc3)c(=O)c2c1O; assay: Enzyme kinetics with recombinant CYP2E1; settings: other: recombinant CYP2E1, mean ± SE, n = 3; 30.0 °C
Protocol: as §1
A Waters AQUITY UPLC system (Waters, Milford, MA, United States) equipped with a Dikma ODS C18 column (150 × 4.6 mm, 5 μm) was used for separation at 30°C. The binary mobile phase consisted of A (an aqueous solution containing 0.1% acetic acid and 2 mM ammonium acetate) and B (acetonitrile) at a flow rate of 1 mL/min. […] The concentrations of the metabolites were calculated using a standard curve of the substrates.
GraphPad Prism software 5.0 was used to perform non-linear fitting between the metabolite generation rate (V) and substrate concentration [S]. The appropriateness of the enzyme kinetic model was determined using R ^2 and the Eadie-Hofstee fit. […] Intrinsic clearance (Clint) was calculated according to Equation 3 (for the Michaelis–Menten model) and Equation 4 (for the sigmoidal kinetics model). All data are expressed as mean ± Standard Error (SE). […]

[3] = substrate: COc1cc(-c2coc3cc(O)c(OC)c(O)c3c2=O)cc(O)c1OC; assay: Enzyme kinetics with recombinant CYP2C19; settings: other: recombinant CYP2C19, mean ± SE, n = 3; 30.0 °C
Protocol: as §1, §2, §3

B1: CYP1A2 (Homo sapiens) (protein)
chain: MALSQSVPFSATELLLASAIFCLVFWVLKGLRPRVPKGLKSPPEPWGWPLLGHVLTLGKNPHLALSRMSQRYGDVLQIRIGSTPVLVLSRLDTIRQALVRQGDDFKGRPDLYTSTLITDGQSLTFSTDSGPVWAARRRLAQNALNTFSIASDPASSSSCYLEEHVSKEAKALISRLQELMAGPGHFDPYNQVVVSVANVIGAMCFGQHFPESSDEMLSLVKNTHEFVETASSGNPLDFFPILRYLPNPALQRFKAFNQRFLWFLQKTVQEHYQDFDKNSVRDITGALFKHSKKGPRASGNLIPQEKIVNLVNDIFGAGFDTVTTAISWSLMYLVTKPEIQRKIQKELDTVIGRERRPRLSDRPQLPYLEAFILETFRHSSFLPFTIPHSTTRDTTLNGFYIPKKCCVFVNQWQVNHDPELWEDPSEFRPERFLTADGTAINKPLSEKMMLFGMGKRRCIGEVLAKWEIFLFLAILLQQLEFSVPPGVKVDLTPIYGLTMKHARCEHVQARLRFSIN
notes: purchased CYPEX (Dundee, United Kingdom)
K0.5 [1]: 38.5 ± 2.5 µM | kcat [1]: 1.77 ± 0.0467 s⁻¹ | kcat/Km [1]: 25000 M⁻¹ s⁻¹

B2: CYP2E1 (Homo sapiens) (protein)
chain: MSALGVTVALLVWAAFLLLVSMWRQVHSSWNLPPGPFPLPIIGNLFQLELKNIPKSFTRLAQRFGPVFTLYVGSQRMVVMHGYKAVKEALLDYKDEFSGRGDLPAFHAHRDRGIIFNNGPTWKDIRRFSLTTLRNYGMGKQGNESRIQREAHFLLEALRKTQGQPFDPTFLIGCAPCNVIADILFRKHFDYNDEKFLRLMYLFNENFHLLSTPWLQLYNNFPSFLHYLPGSHRKVIKNVAEVKEYVSERVKEHHQSLDPNCPRDLTDCLLVEMEKEKHSAERLYTMDGITVTVADLFFAGTETTSTTLRYGLLILMKYPEIEEKLHEEIDRVIGPSRIPAIKDRQEMPYMDAVVHEIQRFITLVPSNLPHEATRDTIFRGYLIPKGTVVVPTLDSVLYDNQEFPDPEKFKPEHFLNENGKFKYSDYFKPFSTGKRVCAGEGLARMELFLLLCAILQHFNLKPLVDPKDIDLSPIHIGFGCIPPRYKLCVIPRS
notes: as for B1
K0.5 [2]: 130.4 ± 18.8 µM | kcat [2]: 0.427 ± 0.0267 s⁻¹

B3: CYP2C19 (Homo sapiens) (protein)
chain: MDPFVVLVLCLSCLLLLSIWRQSSGRGKLPPGPTPLPVIGNILQIDIKDVSKSLTNLSKIYGPVFTLYFGLERMVVLHGYEVVKEALIDLGEEFSGRGHFPLAERANRGFGIVFSNGKRWKEIRRFSLMTLRNFGMGKRSIEDRVQEEARCLVEELRKTKASPCDPTFILGCAPCNVICSIIFQKRFDYKDQQFLNLMEKLNENIRIVSTPWIQICNNFPTIIDYFPGTHNKLLKNLAFMESDILEKVKEHQESMDINNPRDFIDCFLIKMEKEKQNQQSEFTIENLVITAADLLGAGTETTSTTLRYALLLLLKHPEVTAKVQEEIERVIGRNRSPCMQDRGHMPYTDAVVHEVQRYIDLIPTSLPHAVTCDVKFRNYLIPKGTTILTSLTSVLHDNKEFPNPEMFDPRHFLDEGGNFKKSNYFMPFSAGKRICVGEGLARMELFLFLTFILQNFNLKSLIDPKDLDTTPVVNGFASVPPFYQLCFIPV
notes: as for B1
K0.5 [3]: 31.7 ± 2.4 µM | kcat [3]: 0.255 ± 0.005 s⁻¹ | kcat/Km [3]: 8330 M⁻¹ s⁻¹
